# Assay results from publication PMC1783898.
# Biological target: SARS-CoV main protease, full-length wild type (3CLpro) (SARS-CoV) (UniProt P0C6X7)
# Assay: AUC
substance,measurement,value
"SARS-CoV main protease, full-length wild type (3CLpro) (from UniProt P0C6X7) (enzyme)",stoichiometry N,2
